Results on two substances are retold here after publication PMC3131266.

What is called Kd is a measure of binding affinity in units of concentration.

The target of assay [1] is glycocalicin (Homo sapiens) (UniProt P07359). Conditions: cited from earlier work.
Assay [2] deals with glycocalicin, the carbohydrate-rich extracellular portion of the platelet membrane glycoprotein GPIbα (human) (UniProt P07359). Briefly: binding of whole bacteria to immobilised protein in microtiter wells; as a1, bacteria diluted into DPBS containing 44 mM α-2,3-sialyl (1-thioethyl)galactose, pH 7.5, compared with DPBS alone.
glycocalicin, the carbohydrate-rich extracellular portion of the platelet membrane glycoprotein GPIbα (human), sequence (P07359 17-531): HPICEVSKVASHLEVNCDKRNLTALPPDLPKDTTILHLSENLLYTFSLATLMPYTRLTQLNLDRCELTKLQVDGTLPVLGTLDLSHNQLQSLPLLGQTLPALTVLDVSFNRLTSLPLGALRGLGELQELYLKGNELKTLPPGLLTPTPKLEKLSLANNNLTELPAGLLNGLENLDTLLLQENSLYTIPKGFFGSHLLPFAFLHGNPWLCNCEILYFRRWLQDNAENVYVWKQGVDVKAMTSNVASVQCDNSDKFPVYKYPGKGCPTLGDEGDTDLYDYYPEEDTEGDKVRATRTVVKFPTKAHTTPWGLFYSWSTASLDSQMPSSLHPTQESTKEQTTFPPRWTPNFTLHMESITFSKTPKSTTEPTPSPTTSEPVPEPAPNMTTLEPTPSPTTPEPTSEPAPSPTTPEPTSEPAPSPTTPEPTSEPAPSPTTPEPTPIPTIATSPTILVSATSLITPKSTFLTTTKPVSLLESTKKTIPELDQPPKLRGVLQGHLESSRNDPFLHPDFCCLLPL

glycocalicin (Homo sapiens), sequence (P07359 17-506): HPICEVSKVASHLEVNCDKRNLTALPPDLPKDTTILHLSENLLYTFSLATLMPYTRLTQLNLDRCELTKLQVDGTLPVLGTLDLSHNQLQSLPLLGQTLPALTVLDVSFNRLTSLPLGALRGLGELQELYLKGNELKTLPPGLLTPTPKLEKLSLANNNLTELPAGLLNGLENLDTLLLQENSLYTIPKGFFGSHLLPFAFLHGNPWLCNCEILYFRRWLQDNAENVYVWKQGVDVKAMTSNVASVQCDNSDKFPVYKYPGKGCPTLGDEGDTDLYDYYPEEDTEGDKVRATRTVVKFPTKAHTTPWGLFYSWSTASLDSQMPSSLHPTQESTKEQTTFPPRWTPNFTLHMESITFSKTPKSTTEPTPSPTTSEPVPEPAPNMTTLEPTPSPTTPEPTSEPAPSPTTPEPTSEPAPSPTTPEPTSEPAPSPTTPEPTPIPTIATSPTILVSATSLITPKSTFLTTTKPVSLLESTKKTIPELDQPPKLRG
GspB of Streptococcus gordonii strain M99, wild type, on the bacterial cell surface, Q939N5 86-3041 (natural protein; carries sialyl-T antigen carbohydrates (sites not stated)), sequence (Q939N5 86-3041): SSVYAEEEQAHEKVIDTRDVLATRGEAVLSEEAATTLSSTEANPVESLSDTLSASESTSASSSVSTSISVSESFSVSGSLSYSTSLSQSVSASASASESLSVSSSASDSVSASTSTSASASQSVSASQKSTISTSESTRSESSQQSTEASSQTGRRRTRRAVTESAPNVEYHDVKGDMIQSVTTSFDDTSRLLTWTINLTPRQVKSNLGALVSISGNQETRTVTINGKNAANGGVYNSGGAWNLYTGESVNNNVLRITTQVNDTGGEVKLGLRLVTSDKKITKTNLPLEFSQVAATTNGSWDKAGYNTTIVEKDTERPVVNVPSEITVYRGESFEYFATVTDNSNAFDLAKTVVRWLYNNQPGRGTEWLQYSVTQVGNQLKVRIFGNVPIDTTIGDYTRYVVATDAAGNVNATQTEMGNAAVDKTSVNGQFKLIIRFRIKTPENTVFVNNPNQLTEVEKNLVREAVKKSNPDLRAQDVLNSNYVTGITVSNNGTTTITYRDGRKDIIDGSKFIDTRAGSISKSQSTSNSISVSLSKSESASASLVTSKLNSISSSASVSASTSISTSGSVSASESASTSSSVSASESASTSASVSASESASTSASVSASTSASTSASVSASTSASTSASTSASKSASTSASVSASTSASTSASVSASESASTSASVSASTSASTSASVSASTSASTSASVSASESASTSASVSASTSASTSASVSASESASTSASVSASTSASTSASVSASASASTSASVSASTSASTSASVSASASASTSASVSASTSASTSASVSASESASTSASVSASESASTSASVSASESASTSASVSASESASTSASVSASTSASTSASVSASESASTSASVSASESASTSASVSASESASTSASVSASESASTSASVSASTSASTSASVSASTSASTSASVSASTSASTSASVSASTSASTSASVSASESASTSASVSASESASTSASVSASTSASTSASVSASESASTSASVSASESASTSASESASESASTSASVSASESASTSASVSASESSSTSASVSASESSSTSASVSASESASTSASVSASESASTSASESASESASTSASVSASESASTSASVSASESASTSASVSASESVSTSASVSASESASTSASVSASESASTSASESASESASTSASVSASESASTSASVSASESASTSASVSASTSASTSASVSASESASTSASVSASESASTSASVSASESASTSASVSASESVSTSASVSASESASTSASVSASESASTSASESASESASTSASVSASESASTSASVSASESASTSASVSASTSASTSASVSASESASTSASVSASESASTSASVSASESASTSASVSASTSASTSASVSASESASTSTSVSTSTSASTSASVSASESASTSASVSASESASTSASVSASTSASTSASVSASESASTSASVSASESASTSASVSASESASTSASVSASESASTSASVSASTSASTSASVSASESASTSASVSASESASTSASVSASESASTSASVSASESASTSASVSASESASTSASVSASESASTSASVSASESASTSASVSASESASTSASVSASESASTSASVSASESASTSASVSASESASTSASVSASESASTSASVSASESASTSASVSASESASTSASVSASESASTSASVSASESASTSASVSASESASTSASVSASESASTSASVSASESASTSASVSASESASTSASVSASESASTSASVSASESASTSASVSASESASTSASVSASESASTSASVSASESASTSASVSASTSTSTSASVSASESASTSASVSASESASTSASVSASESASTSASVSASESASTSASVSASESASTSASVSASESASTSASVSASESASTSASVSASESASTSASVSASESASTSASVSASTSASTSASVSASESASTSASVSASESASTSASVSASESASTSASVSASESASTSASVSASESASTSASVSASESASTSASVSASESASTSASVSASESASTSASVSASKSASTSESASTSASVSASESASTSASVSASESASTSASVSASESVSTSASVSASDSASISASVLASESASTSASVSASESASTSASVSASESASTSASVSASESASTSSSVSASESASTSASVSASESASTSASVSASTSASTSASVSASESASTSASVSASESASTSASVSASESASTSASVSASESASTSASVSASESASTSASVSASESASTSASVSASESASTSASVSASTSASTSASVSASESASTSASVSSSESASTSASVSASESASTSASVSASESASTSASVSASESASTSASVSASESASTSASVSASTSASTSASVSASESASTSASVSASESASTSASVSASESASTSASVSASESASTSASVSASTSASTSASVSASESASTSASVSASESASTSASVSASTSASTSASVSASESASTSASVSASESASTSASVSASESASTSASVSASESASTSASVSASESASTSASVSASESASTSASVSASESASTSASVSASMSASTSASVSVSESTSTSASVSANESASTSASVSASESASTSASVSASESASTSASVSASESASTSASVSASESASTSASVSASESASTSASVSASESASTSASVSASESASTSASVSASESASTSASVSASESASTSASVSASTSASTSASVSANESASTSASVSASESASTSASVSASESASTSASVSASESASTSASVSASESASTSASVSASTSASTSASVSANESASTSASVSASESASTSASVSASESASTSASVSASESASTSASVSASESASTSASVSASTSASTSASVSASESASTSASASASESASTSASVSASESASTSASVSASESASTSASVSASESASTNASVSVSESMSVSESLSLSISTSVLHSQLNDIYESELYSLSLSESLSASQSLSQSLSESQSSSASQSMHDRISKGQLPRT

As to GspB (from UniProt Q939N5), the Kd in assay [1] is 23.8 nM. “GspB of Streptococcus gordonii strain M99, wild type, on the bacterial cell surface, Q939N5 86-3041 (natural protein; carries sialyl-T antigen carbohydrates (sites not stated))” showed a percent reduction of binding by 44 mM α-2,3-sialyl (1-thioethyl)galactose in assay [2] of 90%.
